B1: Ribose import binding protein RbsB, P02925 (parent)
chain: MNMKKLATLVSAVALSATVSANAMAKDTIALVVSTLNNPFFVSLKDGAQKEADKLGYNLVVLDSQNNPAKELANVQDLTVRGTKILLINPTDSDAVGNAVKMANQANIPVITLDRQATKGEVVSHIASDNVLGGKIAGDYIAKKAGEGAKVIELQGIAGTSAARERGEGFQQAVAAHKFNVLASQPADFDRIKGLNVMQNLLTAHPDVQAVFAQNDEMALGALRALQTAGKSDVMVVGFDGTPDGEKAVNDGKLAATIAQLPDQIGAKGVETADKVLKGEKVQAKYPVDLKLVVKQ

Variants of B1 are the subject of the data set. The note with it: Escherichia coli (strain K12); pH 7; Thermal; CD; Phosphate 5 mM; structure 2DRI; whole UniProt chain shown.

We go through 17 variants from FireProtDB (doi:10.1110/ps.062595707).

Values joined by “and” are separate entries in the source; they are usually repeats but may differ in a detail not shown here. Equal entries are not always repeated.

In general, Tm refers to the temperature at the midpoint of the melting transition. In the case of S34A I157A S128A N38A Q260A, the Tm came to 59 °C and the “change of melting temperature, mutant - wild type (higher = more stable)” value (“change of melting temperature, mutant” for short) was -4.7 °C.
For I157A, the midpoint of thermal melting (Tm) is 57.3 °C and 61.2 °C; the “change of melting temperature, mutant” value is -0.2 °C and -2.5 °C.
In the case of Q260A, the Tm is 58.2 °C and 58.9 °C.
As to S34A, the “change of melting temperature, mutant” value was -1.5 °C and 0.1 °C.
For S34A I157A, the “change of melting temperature, mutant” value was -0.7 °C and 2.4 °C.
For the variant F239A, the Tm is 48 °C and 46 °C.
Same read-out and setting: with F41A the figure was 58.9 °C and 57.4 °C.
Turning to N38A, the Tm was 58.2 °C and 60.1 °C; the “change of melting temperature, mutant” value was 0.7 °C and -3.6 °C.
Regarding N89A, the midpoint of thermal melting (Tm) is 52.9 °C and the “change of melting temperature, mutant” value is -4.6 °C.
In the case of S34A I157A S128A, the Tm is 53.4 °C and 53.7 °C.
For the variant S128A, the Tm was 57.8 °C and 60.7 °C; the “change of melting temperature, mutant” value is 0.3 °C and -3 °C.
With F189A, the Tm is 51.7 °C and 53.3 °C; the “change of melting temperature, mutant” value was -5.8 °C and -10.4 °C.
Turning to N215A, the Tm was 49.4 °C and 51.5 °C; the “change of melting temperature, mutant” value is -8.1 °C and -12.2 °C.
Consider D114A, for which the Tm is 58.2 °C and 57.2 °C.
On the same count and under the same terms, for D240A the value was 51.2 °C and 51.3 °C.
As for S34A I157A S128A N38A, the Tm came out at 54.7 °C and the “change of melting temperature, mutant” value was -9 °C.
For F40A, the Tm is 52.5 °C and 54.2 °C; the “change of melting temperature, mutant” value is -5 °C and -9.5 °C.
